From PMC10980208, “A novel micellular fluorogenic substrate for quantitating the activity of 1-phosphatidylinositol 4,5-bisphosphate phosphodiesterase gamma (PLCγ) enzymes” (PLOS ONE, 2024)

Substrate: CCCCCCCCCCCCCCCCOc1cc(COC(=O)Nc2ccc3c(C(F)(F)F)cc(=O)oc3c2)ccc1OP(=O)(O)O[C@@H]1[C@H](O)[C@H](O)[C@@H](OP(=O)(O)O)[C@H](OP(=O)(O)O)[C@H]1O
Experiment: purified protein
Conditions: Ca2+

Protein | Km | Vmax | kcat | kcat/Km
PLCγ1 (Homo sapiens) (protein) AGAASPCANGCGPGAPSDAEVLHLCRSLEVGTVMTLFYSKKSQRPERKTFQVKLETRQITWSRGADKIEGAIDIREIKEIRPGKTSRDFDRYQEDPAFRPDQSHCFVILYGMEFRLKTLSLQATSEDEVNMWIKGLTWLMEDTLQAPTPLQIERWLRKQFYSVDRNREDRISAKDLKNMLSQVNYRVPNMRFLRERLTDLEQRSGDITYGQFAQLYRSLMYSAQKTMDLPFLEASTLRAGERPELCRVSLPEFQQFLLDYQGELWAVDRLQVQEFMLSFLRDPLREIEEPYFFLDEFVTFLFSKENSVWNSQLDAVCPDTMNNPLSHYWISSSHNTYLTGDQFSSESSLEAYARCLRMGCRCIELDCWDGPDGMPVIYHGHTLTTKIKFSDVLHTIKEHAFVASEYPVILSIEDHCSIAQQRNMAQYFKKVLGDTLLTKPVEISADGLPSPNQLKRKILIKHKKLAEGSAYEEVPTSMMYSENDISNSIKNGILYLEDPVNHEWYPHYFVLTSSKIYYSEETSSDQGNEDEEEPKEVSSSTELHSNEKWFHGKLGAGRDGRHIAERLLTEYCIETGAPDGSFLVRESETFVGDYTLSFWRNGKVQHCRIHSRQDAGTPKFFLTDNLVFDSLYDLITHYQQVPLRCNEFEMRLSEPVPQTNAHESKEWYHASLTRAQAEHMLMRVPRDGAFLVRKRNEPNSYAISFRAEGKIKHCRVQQEGQTVMLGNSEFDSLVDLISYYEKHPLYRKMKLRYPINEEALEKIGTAEPDYGALYEGRNPGFYVEANPMPTFKCAVKALFDYKAQREDELTFIKSAIIQNVEKQEGGWWRGDYGGKKQLWFPSNYVEEMVNPVALEPEREHLDENSPLGDLLRGVLDVPACQIAIRPEGKNNRLFVFSISMASVAHWSLDVAADSQEELQDWVKKIREVAQTADARLTEGKIMERRKKIALELSELVVYCRPVPFDEEKIGTERACYRDMSSFPETKAEKYVNKAKGKKFLQYNRLQLSRIYPKGQRLDSSNYDPLPMWICGSQLVALNFQTPDKPMQMNQALFMTGRHCGYVLQPSTMRDEAFDPFDKSSLRGLEPCAISIEVLGARHLPKNGRGIVCPFVEIEVAGAEYDSTKQKTEFVVDNGLNPVWPAKPFHFQISNPEFAFLRFVVYEEDMFSDQNFLAQATFPVKGLKTGYRAVPLKNNYSEDLELASLLIKIDIFPAKENGDLSPFSGTSLRERGSDASGQLFHGRAREGSFESRYQQPFEDFRISQEHLADHFDSRERRAPRRTRVNGDNRL | 27.7 ± 14.5 µM | 0.35 µmol/min/mg | 0.833 ± 0.367 s⁻¹ | 32700 ± 6670 M⁻¹ s⁻¹
PLCγ2 (Homo sapiens) (protein) MSTTVNVDSLAEYEKSQIKRALELGTVMTVFSFRKSTPERRTVQVIMETRQVAWSKTADKIEGFLDIMEIKEIRPGKNSKDFERAKAVRQKEDCCFTILYGTQFVLSTLSLAADSKEDAVNWLSGLKILHQEAMNASTPTIIESWLRKQIYSVDQTRRNSISLRELKTILPLINFKVSSAKFLKDKFVEIGAHKDELSFEQFHLFYKKLMFEQQKSILDEFKKDSSVFILGNTDRPDASAVYLHDFQRFLIHEQQEHWAQDLNKVRERMTKFIDDTMRETAEPFLFVDEFLTYLFSRENSIWDEKYDAVDMQDMNNPLSHYWISSSHNTYLTGDQLRSESSPEAYIRCLRMGCRCIELDCWDGPDGKPVIYHGWTRTTKIKFDDVVQAIKDHAFVTSSFPVILSIEEHCSVEQQRHMAKAFKEVFGDLLLTKPTEASADQLPSPSQLREKIIIKHKKLGPRGDVDVNMEDKKDEHKQQGELYMWDSIDQKWTRHYCAIADAKLSFSDDIEQTMEEEVPQDIPPTELHFGEKWFHKKVEKRTSAEKLLQEYCMETGGKDGTFLVRESETFPNDYTLSFWRSGRVQHCRIRSTMEGGTLKYYLTDNLTFSSIYALIQHYRETHLRCAEFELRLTDPVPNPNPHESKPWYYDSLSRGEAEDMLMRIPRDGAFLIRKREGSDSYAITFRARGKVKHCRINRDGRHFVLGTSAYFESLVELVSYYEKHSLYRKMRLRYPVTPELLERYNMERDINSLYDVSRMYVDPSEINPSMPQRTVKALYDYKAKRSDELSFCRGALIHNVSKEPGGWWKGDYGTRIQQYFPSNYVEDISTADFEELEKQIIEDNPLGSLCRGILDLNTYNVVKAPQGKNQKSFVFILEPKQQGDPPVEFATDRVEELFEWFQSIREITWKIDTKENNMKYWEKNQSIAIELSDLVVYCKPTSKTKDNLENPDFREIRSFVETKADSIIRQKPVDLLKYNQKGLTRVYPKGQRVDSSNYDPFRLWLCGSQMVALNFQTADKYMQMNHALFSLNGRTGYVLQPESMRTEKYDPMPPESQRKILMTLTVKVLGARHLPKLGRSIACPFVEVEICGAEYDNNKFKTTVVNDNGLSPIWAPTQEKVTFEIYDPNLAFLRFVVYEEDMFSDPNFLAHATYPIKAVKSGFRSVPLKNGYSEDIELASLLVFCEMRPVLESEEELYSSCRQLRRRQEELNNQLFLYDTHQNLRNANRDALVKEFSVNENQLQLYQEKCNKRLREKRVSNSKFYS | 4.6 ± 0.8 µM | 0.019 µmol/min/mg | 0.045 ± 0.00333 s⁻¹ | 10000 ± 1670 M⁻¹ s⁻¹
